The chains are these.
B1: target 1 insC 3' of 22,insA 3' of 7 (mixed)
RNA 1: CACCCGUGCAAAAAUGCAGGGGUCUAAAACUGAGCGGAUAACCUCUCUAUGG
RNA 2: GGGAAUGGAUCCACAUCUACGAAUUCGUACCCAUAGAGAGGUUAUCACGCUCACCGAGAUCGGAAGAGCACACGU
B2: target 1 insG 3' of 11,insG 3' of 11 (mixed)
RNA 1: CACCCGUGCAAAAAUGCAGGGGUCUAAAACUGAGCGGAUAACCUCUCUAUGG
RNA 2: GGGAAUGGAUCCACAUCUACGAAUUCGUACCAUAGAGAGGUGGUAUCCGCUCACCGAGAUCGGAAGAGCACACGU
B3: target 1 insA 3' of 15,insG 3' of 4 (mixed)
RNA 1: CACCCGUGCAAAAAUGCAGGGGUCUAAAACUGAGCGGAUAACCUCUCUAUGG
RNA 2: GGGAAUGGAUCCACAUCUACGAAUUCGUACCAUAGAGAAGGUUAUCCGCGUCACCGAGAUCGGAAGAGCACACGU
B4: target 1 insU 3' of 14,insU 3' of 4 (mixed)
RNA 1: CACCCGUGCAAAAAUGCAGGGGUCUAAAACUGAGCGGAUAACCUCUCUAUGG
RNA 2: GGGAAUGGAUCCACAUCUACGAAUUCGUACCAUAGAGAUGGUUAUCCGCUUCACCGAGAUCGGAAGAGCACACGU
B5: target 1 insC 3' of 10,insU 3' of 6 (mixed)
RNA 1: CACCCGUGCAAAAAUGCAGGGGUCUAAAACUGAGCGGAUAACCUCUCUAUGG
RNA 2: GGGAAUGGAUCCACAUCUACGAAUUCGUACCAUAGAGAGGUUCAUCCUGCUCACCGAGAUCGGAAGAGCACACGU
B6: target 1 insG 3' of 8,insU 3' of 1 (mixed)
RNA 1: CACCCGUGCAAAAAUGCAGGGGUCUAAAACUGAGCGGAUAACCUCUCUAUGG
RNA 2: GGGAAUGGAUCCACAUCUACGAAUUCGUACCAUAGAGAGGUUAUGCCGCUCAUCCGAGAUCGGAAGAGCACACGU
B7: target 1 U8A,C21A (mixed)
RNA 1: CACCCGUGCAAAAAUGCAGGGGUCUAAAACUGAGCGGAUAACCUCUCUAUGG
RNA 2: GGGAAUGGAUCCACAUCUACGAAUUCGUACAAUAGAGAGGUUAACCGCUCACCGAGAUCGGAAGAGCACACGU
B8: target 1 insG 3' of 8,insG 3' of 1 (mixed)
RNA 1: CACCCGUGCAAAAAUGCAGGGGUCUAAAACUGAGCGGAUAACCUCUCUAUGG
RNA 2: GGGAAUGGAUCCACAUCUACGAAUUCGUACCAUAGAGAGGUUAUGCCGCUCAGCCGAGAUCGGAAGAGCACACGU
B9: target 1 C4G,G17U (mixed)
RNA 1: CACCCGUGCAAAAAUGCAGGGGUCUAAAACUGAGCGGAUAACCUCUCUAUGG
RNA 2: GGGAAUGGAUCCACAUCUACGAAUUCGUACCAUAUAGAGGUUAUCCGGUCACCGAGAUCGGAAGAGCACACGU
B10: target 1 insG 3' of 10,insA 3' of 8 (mixed)
RNA 1: CACCCGUGCAAAAAUGCAGGGGUCUAAAACUGAGCGGAUAACCUCUCUAUGG
RNA 2: GGGAAUGGAUCCACAUCUACGAAUUCGUACCAUAGAGAGGUUGAUACCGCUCACCGAGAUCGGAAGAGCACACGU
B11: target 1 insC 3' of 22,insA 3' of 4 (mixed)
RNA 1: CACCCGUGCAAAAAUGCAGGGGUCUAAAACUGAGCGGAUAACCUCUCUAUGG
RNA 2: GGGAAUGGAUCCACAUCUACGAAUUCGUACCCAUAGAGAGGUUAUCCGCAUCACCGAGAUCGGAAGAGCACACGU
B12: target 1 G5A,G12C (mixed)
RNA 1: CACCCGUGCAAAAAUGCAGGGGUCUAAAACUGAGCGGAUAACCUCUCUAUGG
RNA 2: GGGAAUGGAUCCACAUCUACGAAUUCGUACCAUAGAGAGCUUAUCCACUCACCGAGAUCGGAAGAGCACACGU
B13: target 1 insU 3' of 22,insG 3' of 8 (mixed)
RNA 1: CACCCGUGCAAAAAUGCAGGGGUCUAAAACUGAGCGGAUAACCUCUCUAUGG
RNA 2: GGGAAUGGAUCCACAUCUACGAAUUCGUACUCAUAGAGAGGUUAUGCCGCUCACCGAGAUCGGAAGAGCACACGU
B14: target 1 insC 3' of 11,insG 3' of 3 (mixed)
RNA 1: CACCCGUGCAAAAAUGCAGGGGUCUAAAACUGAGCGGAUAACCUCUCUAUGG
RNA 2: GGGAAUGGAUCCACAUCUACGAAUUCGUACCAUAGAGAGGUCUAUCCGCUGCACCGAGAUCGGAAGAGCACACGU
B15: target 1 insA 3' of 21,insA 3' of 6 (mixed)
RNA 1: CACCCGUGCAAAAAUGCAGGGGUCUAAAACUGAGCGGAUAACCUCUCUAUGG
RNA 2: GGGAAUGGAUCCACAUCUACGAAUUCGUACCAAUAGAGAGGUUAUCCAGCUCACCGAGAUCGGAAGAGCACACGU
B16: target 1 insA 3' of 13,insU 3' of 1 (mixed)
RNA 1: CACCCGUGCAAAAAUGCAGGGGUCUAAAACUGAGCGGAUAACCUCUCUAUGG
RNA 2: GGGAAUGGAUCCACAUCUACGAAUUCGUACCAUAGAGAGAGUUAUCCGCUCAUCCGAGAUCGGAAGAGCACACGU
B17: target 1 C6G,G15A (mixed)
RNA 1: CACCCGUGCAAAAAUGCAGGGGUCUAAAACUGAGCGGAUAACCUCUCUAUGG
RNA 2: GGGAAUGGAUCCACAUCUACGAAUUCGUACCAUAGAAAGGUUAUCGGCUCACCGAGAUCGGAAGAGCACACGU
B18: target 1 insA 3' of 8 (mixed)
RNA 1: CACCCGUGCAAAAAUGCAGGGGUCUAAAACUGAGCGGAUAACCUCUCUAUGG
RNA 2: GGGAAUGGAUCCACAUCUACGAAUUCGUACCAUAGAGAGGUUAUACCGCUCACCGAGAUCGGAAGAGCACACGU
B19: target 1 insC 3' of 20,insG 3' of 14 (mixed)
RNA 1: CACCCGUGCAAAAAUGCAGGGGUCUAAAACUGAGCGGAUAACCUCUCUAUGG
RNA 2: GGGAAUGGAUCCACAUCUACGAAUUCGUACCACUAGAGAGGGUUAUCCGCUCACCGAGAUCGGAAGAGCACACGU
B20: target 1 insG 3' of 22 (mixed)
RNA 1: CACCCGUGCAAAAAUGCAGGGGUCUAAAACUGAGCGGAUAACCUCUCUAUGG
RNA 2: GGGAAUGGAUCCACAUCUACGAAUUCGUACGCAUAGAGAGGUUAUCCGCUCACCGAGAUCGGAAGAGCACACGU
B21: target 1 insC 3' of 9,insG 3' of 1 (mixed)
RNA 1: CACCCGUGCAAAAAUGCAGGGGUCUAAAACUGAGCGGAUAACCUCUCUAUGG
RNA 2: GGGAAUGGAUCCACAUCUACGAAUUCGUACCAUAGAGAGGUUACUCCGCUCAGCCGAGAUCGGAAGAGCACACGU
B22: target 1 U3A,C22A (mixed)
RNA 1: CACCCGUGCAAAAAUGCAGGGGUCUAAAACUGAGCGGAUAACCUCUCUAUGG
RNA 2: GGGAAUGGAUCCACAUCUACGAAUUCGUAACAUAGAGAGGUUAUCCGCACACCGAGAUCGGAAGAGCACACGU
B23: target 1 G13A,G15A (mixed)
RNA 1: CACCCGUGCAAAAAUGCAGGGGUCUAAAACUGAGCGGAUAACCUCUCUAUGG
RNA 2: GGGAAUGGAUCCACAUCUACGAAUUCGUACCAUAGAAAAGUUAUCCGCUCACCGAGAUCGGAAGAGCACACGU
B24: target 1 insU 3' of 20,insA 3' of 13 (mixed)
RNA 1: CACCCGUGCAAAAAUGCAGGGGUCUAAAACUGAGCGGAUAACCUCUCUAUGG
RNA 2: GGGAAUGGAUCCACAUCUACGAAUUCGUACCAUUAGAGAGAGUUAUCCGCUCACCGAGAUCGGAAGAGCACACGU
B25: target 1 U10A,A18U (mixed)
RNA 1: CACCCGUGCAAAAAUGCAGGGGUCUAAAACUGAGCGGAUAACCUCUCUAUGG
RNA 2: GGGAAUGGAUCCACAUCUACGAAUUCGUACCAUUGAGAGGUAAUCCGCUCACCGAGAUCGGAAGAGCACACGU
B26: target 1 insC 3' of 22,insU 3' of 5 (mixed)
RNA 1: CACCCGUGCAAAAAUGCAGGGGUCUAAAACUGAGCGGAUAACCUCUCUAUGG
RNA 2: GGGAAUGGAUCCACAUCUACGAAUUCGUACCCAUAGAGAGGUUAUCCGUCUCACCGAGAUCGGAAGAGCACACGU
B27: target 1 insU 3' of 2 (mixed)
RNA 1: CACCCGUGCAAAAAUGCAGGGGUCUAAAACUGAGCGGAUAACCUCUCUAUGG
RNA 2: GGGAAUGGAUCCACAUCUACGAAUUCGUACCAUAGAGAGGUUAUCCGCUCUACCGAGAUCGGAAGAGCACACGU

In this series the target is T1, EsCas13d, nuclease-dead (Eubacterium siraeum, UniProt B0MS50, R295A;H300A;R849A;H854A).
T1 sequence: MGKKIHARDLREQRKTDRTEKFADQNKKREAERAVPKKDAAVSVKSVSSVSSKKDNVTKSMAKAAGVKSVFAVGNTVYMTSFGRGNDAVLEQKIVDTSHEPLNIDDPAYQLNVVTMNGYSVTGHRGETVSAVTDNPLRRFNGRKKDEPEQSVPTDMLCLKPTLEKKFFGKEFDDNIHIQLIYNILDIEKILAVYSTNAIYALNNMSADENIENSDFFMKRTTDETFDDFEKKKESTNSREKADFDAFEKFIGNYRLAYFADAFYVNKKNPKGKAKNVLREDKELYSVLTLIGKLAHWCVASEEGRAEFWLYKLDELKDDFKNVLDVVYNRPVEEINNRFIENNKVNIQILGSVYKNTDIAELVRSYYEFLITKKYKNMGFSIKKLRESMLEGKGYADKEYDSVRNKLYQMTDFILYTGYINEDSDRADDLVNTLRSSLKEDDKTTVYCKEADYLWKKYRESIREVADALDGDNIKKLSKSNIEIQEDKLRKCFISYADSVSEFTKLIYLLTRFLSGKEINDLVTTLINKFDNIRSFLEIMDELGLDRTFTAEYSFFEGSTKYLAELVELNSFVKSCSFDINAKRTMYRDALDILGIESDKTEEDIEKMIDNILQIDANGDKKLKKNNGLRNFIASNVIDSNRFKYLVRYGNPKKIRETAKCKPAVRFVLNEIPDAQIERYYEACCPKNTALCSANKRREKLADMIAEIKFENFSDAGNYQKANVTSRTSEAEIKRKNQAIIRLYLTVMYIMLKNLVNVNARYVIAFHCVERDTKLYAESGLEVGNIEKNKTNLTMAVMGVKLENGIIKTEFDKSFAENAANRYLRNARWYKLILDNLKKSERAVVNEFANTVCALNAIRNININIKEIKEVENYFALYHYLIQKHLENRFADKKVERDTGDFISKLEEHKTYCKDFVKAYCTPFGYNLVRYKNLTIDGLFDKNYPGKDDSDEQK
The series can be described thus: crRNA (strand 1, pre-loaded); Mg2+; 40 mM Tris-HCl pH 7.5, 150 mM NaCl, 6 mM MgCl2, 1 mM DTT, 0.1% Tween-20, 0.2 mg/ml BSA; 25 C; 10 min per concentration, then washed. Particulars: tags: His6-TwinStrep-SUMO cleaved; N-terminal SNAP kept (SNAP-Surface 488); label: 3' end held by stalled T7 RNA polymerase.
Turning to B1, the Kd worked out at 17.6 ± 2.5 nM.
Next, B2: 86 ± 26 nM; B3: 6.4 ± 0.6 nM.
To B4 belongs 63 ± 13 nM; to B5, 46 ± 5 nM; to B6, 12.6 ± 0.9 nM.
As to B7, the affinity, expressed as Kd, was 55 ± 9 nM.
Next, B8: 13.4 ± 0.7 nM; B9: 39 ± 12 nM.
Next, B10: 21.6 ± 1 nM; B11: 15.9 ± 3.1 nM.
To B12 belongs 13.5 ± 0.5 nM.
In turn, B13 had a dissociation constant Kd of 49 ± 4 nM.
B14 had a Kd of 24.9 ± 1.4 nM. This Kd is about 2-fold lower than that of the molecule before.
Next, B15: 22.1 ± 2.3 nM; B16: 3.62 ± 0.33 nM.
As for B17, binding was characterised by a dissociation constant (Kd) of 14.4 ± 0.8 nM. Against the preceding molecule, the Kd is about 4-fold higher.
B18 registered a Kd of 15.7 ± 1 nM.
For B19, binding was characterised by a dissociation constant (Kd) of 10.1 ± 0.8 nM.
To B20 belongs 31 ± 2.8 nM.
Take B21: the dissociation constant (Kd) came out at 12.2 ± 1.2 nM.
To B22 belongs 60 ± 17 nM.
Next, B23: 10.3 ± 0.8 nM.
Next, B24: 8.4 ± 1.2 nM; B25: 43 ± 4 nM.
B26 had a Kd of 24.3 ± 3.1 nM.
As to B27, binding was characterised by a dissociation constant (Kd) of 9.7 ± 0.8 nM.
